PMC7954794, “Protein context shapes the specificity of SH3 domain-mediated interactions in vivo” (Nature Communications, 2021)

Tested on: Sla1 PPIs
Assay: DHFR-PCA of Sla1 SH3-swapped, -shuffled or -deleted baits (Fig. 2E, 4B, 4D, S5A)
Assay type: cell-based, Saccharomyces cerevisiae
Excerpt: The stuffing of YSC84 SH3 rendered the strain sterile and was therefore not used for this study as the assays require crosses. For genes containing two SH3s (BZZ1 and BEM1), a combination of this first stuffer with a second one ([…]) coding for a highly similar linker ([…]) was used, which allowed targeting each SH3 position independently. The two N-terminal domains of SLA1, which are separated by six nucleotides, were stuffed by a single stuffer. Cells containing pCAS were selected via the G418 resistance cassette from the plasmid on YPD plates (YPD + NAT 100 μg/ml (DHFR F[1,2] selection) + G418 200 µg/mL (Bioshop Canada)). Colonies were randomly selected and grown in YPD media without G418 to allow plasmid loss. The correct insertion of the stuffer was validated by PCR and Sanger sequencing. The SH3-swapped, -shuffled, and -mutated strains were constructed following a second CRISPR–Cas9 editing step with the same procedures. The stuffer sequences were targeted by specific gRNAs (one gRNA per stuffer) and replaced by PCR amplified specific SH3 (with 40 bp homology arms) or libraries of mutated SH3 domains for Deep Mutational Scanning (DMS) with 78 bp flanking homology regions. Validation of the SH3 domain insertions was done as we previously described except for DMS libraries (see below).
The overall DHFR-PCA pipeline is based on Tarassov et al.[43] and the procedures have also been published as a visualized protocol. The screens were performed with robotically manipulated pin tools (BM5-SC1, S&P Robotics Inc.). First, the preys were cherry-picked from 96-well plates to omnitrays in a 384 format on YPD + HPH solid media. Plates were then combined into the 1536 format on YPD + HPH. The array was constituted of 575 preys previously shown to interact physically with at least one SH3-containing protein as reported in BioGRID V3.4.16 along with 40 negative controls. The prey array comprised a border of control strains of two rows and two columns corresponding to the PPI between LSM8-DHFR F[1,2] and CDC39-DHFR F[3]. This double border was used to remove border effects. Preys are present in duplicate at a randomized position in the 1536 array (except for YAL041W which is present four times per array). Baits were crossed with two prey plates, resulting in four independent bait–prey tests for each PPI. Baits were grown in liquid YPD + NAT and then transferred on solid YPD + NAT omnitrays. They were then replicated on YPD + NAT omnitrays in 1536 array format. Mating of DHFR F[1,2] baits with DHFR F[3] preys was done on YPD followed by incubation at 30 °C for 48 h. Two diploid selection steps were performed by replicating the plates on YPD + NAT + HPH and incubating them for 48 h at 30 °C. Pictures were taken at the end of the second diploid selection for quality control. All images were acquired with a EOS Rebel T5i camera (Canon). Finally, the diploid cells were replicated on omnitrays containing solid PCA selection media and incubated for 4 days as a first selection step in a spImager custom robotic platform (S&P Robotics Inc.). Cells were replicated for a second PCA selection step and incubated in the same manner. The last time point of the second PCA selection step was used for the data analysis as in previous studies using this method.
A separate DHFR-PCA screen was performed for the Sla1 SH3 shuffling experiment, with the same analysis as previously described. Three plates had no detectable level of background, which correspond to the second plate of the three Sla1 SH3 WT re-insertion controls. They were attributed the average of the background of the three first plates of the same baits. The threshold was also determined based on the distribution of the PCA scores of all PPIs and corresponds to the top 2.75% of all colonies detected in this experiment. […] Almost all true PPIs are from four replicates (96.2%). […]

B1: WT¦WT¦WT (protein, UniProt P32790 1-1244, looked up)
Actin cytoskeleton-regulatory …: MTVFLGIYRAVYAYEPQTPEELAIQEDDLLYLLQKSDIDDWWTVKKRVIGSDSEEPVGLVPSTYIEEAPVLKKVRAIYDYEQVQNADEELTFHENDVFDVFDDKDADWLLVKSTVSNEFGFIPGNYVEPENGSTSKQEQAPAAAEAPAATPAAAPASAAVLPTNFLPPPQHNDRARMMQSKEDQAPDEDEEGPPPAMPARPTATTETTDATAAAVRSRTRLSYSDNDNDDEEDDYYYNSNSNNVGNHEYNTEYHSWNVTEIEGRKKKKAKLSIGNNKINFIPQKGTPHEWSIDKLVSYDNEKKHMFLEFVDPYRSLELHTGNTTTCEEIMNIIGEYKGASRDPGLREVEMASKSKKRGIVQYDFMAESQDELTIKSGDKVYILDDKKSKDWWMCQLVDSGKSGLVPAQFIEPVRDKKHTESTASGIIKSIKKNFTKSPSRSRSRSRSKSNANASWKDDELQNDVVGSAAGKRSRKSSLSSHKKNSSATKDFPNPKKSRLWVDRSGTFKVDAEFIGCAKGKIHLHKANGVKIAVAADKLSNEDLAYVEKITGFSLEKFKANDGSSSRGTDSRDSERERRRRLKEQEEKERDRRLKERELYELKKARELLDEERSRLQEKELPPIKPPRPTSTTSVPNTTSVPPAESSNNNNSSNKYDWFEFFLNCGVDVSNCQRYTINFDREQLTEDMMPDINNSMLRTLGLREGDIVRVMKHLDKKFGRENIASIPTNATGNMFSQPDGSLNVATSPETSLPQQLLPQTTSPAQTAPSTSAETDDAWTVKPASKSESNLLSKKSEFTGSMQDLLDLQPLEPKKAAASTPEPNLKDLEPVKTGGTTVPAAPVSSAPVSSAPAPLDPFKTGGNNILPLSTGFVMMPMITGGDMLPMQRTGGFVVPQTTFGMQSQVTGGILPVQKTGNGLIPISNTGGAMMPQTTFGAAATVLPLQKTGGGLIPIATTGGAQFPQTSFNVQGQQQLPTGSILPVQKTANGLISANTGVSMPTVQRTGGTMIPQTSFGVSQQLTGGAMMTQPQNTGSAMMPQTSFNAVPQITGGAMMPQTSFNALPQVTGGAMMPLQRTGGALNTFNTGGAMIPQTSFSSQAQNTGGFRPQSQFGLTLQKTGGIAPLNQNQFTGGAMNTLSTGGVLQQQQPQTMNTFNTGGVMQELQMMTTFNTGGAMQQPQMMNTFNTDGIMQQPQMMNTFNTGGAMQQPQQQALQNQPTGFGFGNGPQQSRQANIFNATASNPFGF
Protein-protein interaction distance between Sla1 baits (distance to bait ABP1¦WT¦WT): 8.25 | Protein-protein interaction distance between Sla1 baits (distance to bait ABP1¦WT¦WT, listed as WT¦WT¦WT*): 10.6959 | Protein-protein interaction distance between Sla1 baits (distance to bait D¦D¦D): 16.1793 | Protein-protein interaction distance between Sla1 baits (distance to bait D¦D¦D, listed as WT¦WT¦WT*): 19.5303 | Protein-protein interaction distance between Sla1 baits (distance to bait D¦D¦SH3-1): 16.1305 | Protein-protein interaction distance between Sla1 baits (distance to bait D¦D¦SH3-1, listed as WT¦WT¦WT*): 19.4574 | Protein-protein interaction distance between Sla1 baits (distance to bait D¦D¦WT): 16.2907 | Protein-protein interaction distance between Sla1 baits (distance to bait D¦D¦WT, listed as WT¦WT¦WT*): 19.6881 | Protein-protein interaction distance between Sla1 baits (distance to bait D¦WT¦D): 11.2982 | Protein-protein interaction distance between Sla1 baits (distance to bait D¦WT¦D, listed as WT¦WT¦WT*): 13.9439 | Protein-protein interaction distance between Sla1 baits (distance to bait D¦WT¦SH3-1): 14.8539 | Protein-protein interaction distance between Sla1 baits (distance to bait D¦WT¦SH3-1, listed as WT¦WT¦WT*): 18.0045 | Protein-protein interaction distance between Sla1 baits (distance to bait D¦WT¦SH3-2): 16.1112 | Protein-protein interaction distance between Sla1 baits (distance to bait D¦WT¦SH3-2, listed as WT¦WT¦WT*): 19.4593 | Protein-protein interaction distance between Sla1 baits (distance to bait D¦WT¦WT): 11.2206 | Protein-protein interaction distance between Sla1 baits (distance to bait D¦WT¦WT, listed as WT¦WT¦WT*): 13.8561 | Protein-protein interaction distance between Sla1 baits (distance to bait SH3-2¦SH3-1¦WT): 14.7068 | Protein-protein interaction distance between Sla1 baits (distance to bait SH3-2¦SH3-1¦WT, listed as WT¦WT¦WT*): 17.8199 | Protein-protein interaction distance between Sla1 baits (distance to bait SH3-2¦WT¦D): 16.5686 | Protein-protein interaction distance between Sla1 baits (distance to bait SH3-2¦WT¦D, listed as WT¦WT¦WT*): 19.9645 | Protein-protein interaction distance between Sla1 baits (distance to bait SH3-2¦WT¦WT): 10.6088 | Protein-protein interaction distance between Sla1 baits (distance to bait SH3-2¦WT¦WT, listed as WT¦WT¦WT*): 13.1093 | Protein-protein interaction distance between Sla1 baits (distance to bait SH3-3¦SH3-1¦D): 6.071 | Protein-protein interaction distance between Sla1 baits (distance to bait SH3-3¦SH3-1¦D, listed as WT¦WT¦WT*): 7.132 | Protein-protein interaction distance between Sla1 baits (distance to bait SH3-3¦SH3-1¦SH3-2): 11.1253 | Protein-protein interaction distance between Sla1 baits (distance to bait SH3-3¦SH3-1¦SH3-2, listed as WT¦WT¦WT*): 13.2567 | Protein-protein interaction distance between Sla1 baits (distance to bait SH3-3¦WT¦D): 6.23 | Protein-protein interaction distance between Sla1 baits (distance to bait SH3-3¦WT¦D, listed as WT¦WT¦WT*): 7.588 | Protein-protein interaction distance between Sla1 baits (distance to bait SH3-3¦WT¦SH3-1): 7.451 | Protein-protein interaction distance between Sla1 baits (distance to bait SH3-3¦WT¦SH3-1, listed as WT¦WT¦WT*): 7.53 | Protein-protein interaction distance between Sla1 baits (distance to bait SH3-3¦WT¦WT): 5.911 | Protein-protein interaction distance between Sla1 baits (distance to bait SH3-3¦WT¦WT, listed as WT¦WT¦WT*): 7.517 | Protein-protein interaction distance between Sla1 baits (distance to bait WT*¦WT¦WT): 6.431 | Protein-protein interaction distance between Sla1 baits (distance to bait WT*¦WT¦WT, listed as WT¦WT¦WT*): 3.21 | Protein-protein interaction distance between Sla1 baits (distance to bait WT¦ABP1¦WT): 7.491 | Protein-protein interaction distance between Sla1 baits (distance to bait WT¦ABP1¦WT, listed as WT¦WT¦WT*): 10.0527 | Protein-protein interaction distance between Sla1 baits (distance to bait WT¦D¦D): 10.9978 | Protein-protein interaction distance between Sla1 baits (distance to bait WT¦D¦D, listed as WT¦WT¦WT*): 13.667 | Protein-protein interaction distance between Sla1 baits (distance to bait WT¦D¦SH3-2): 12.0771 | Protein-protein interaction distance between Sla1 baits (distance to bait WT¦D¦SH3-2, listed as WT¦WT¦WT*): 14.877 | Protein-protein interaction distance between Sla1 baits (distance to bait WT¦D¦WT): 11.0221 | Protein-protein interaction distance between Sla1 baits (distance to bait WT¦D¦WT, listed as WT¦WT¦WT*): 13.7143 | Protein-protein interaction distance between Sla1 baits (distance to bait WT¦SH3-1¦D): 6.357 | Protein-protein interaction distance between Sla1 baits (distance to bait WT¦SH3-1¦D, listed as WT¦WT¦WT*): 7.675 | Protein-protein interaction distance between Sla1 baits (distance to bait WT¦SH3-1¦WT): 5.709 | Protein-protein interaction distance between Sla1 baits (distance to bait WT¦SH3-1¦WT, listed as WT¦WT¦WT*): 7.171 | Protein-protein interaction distance between Sla1 baits (distance to bait WT¦SH3-3¦D): 9.961 | Protein-protein interaction distance between Sla1 baits (distance to bait WT¦SH3-3¦D, listed as WT¦WT¦WT*): 12.4074 | Protein-protein interaction distance between Sla1 baits (distance to bait WT¦SH3-3¦SH3-2): 12.7354 | Protein-protein interaction distance between Sla1 baits (distance to bait WT¦SH3-3¦SH3-2, listed as WT¦WT¦WT*): 15.4687 | Protein-protein interaction distance between Sla1 baits (distance to bait WT¦SH3-3¦WT): 10.0693 | Protein-protein interaction distance between Sla1 baits (distance to bait WT¦SH3-3¦WT, listed as WT¦WT¦WT*): 12.5958 | Protein-protein interaction distance between Sla1 baits (distance to bait WT¦WT*¦WT): 6.129 | Protein-protein interaction distance between Sla1 baits (distance to bait WT¦WT*¦WT, listed as WT¦WT¦WT*): 3.181 | Protein-protein interaction distance between Sla1 baits (distance to bait WT¦WT¦ABP1): 9 | Protein-protein interaction distance between Sla1 baits (distance to bait WT¦WT¦ABP1, listed as WT¦WT¦WT*): 10.6328 | Protein-protein interaction distance between Sla1 baits (distance to bait WT¦WT¦D): 5.067 | Protein-protein interaction distance between Sla1 baits (distance to bait WT¦WT¦D, listed as WT¦WT¦WT*): 7.2651 | Protein-protein interaction distance between Sla1 baits (distance to bait WT¦WT¦SH3-1): 4.945 | Protein-protein interaction distance between Sla1 baits (distance to bait WT¦WT¦SH3-1, listed as WT¦WT¦WT*): 5.794 | Protein-protein interaction distance between Sla1 baits (distance to bait WT¦WT¦SH3-2): 5.746 | Protein-protein interaction distance between Sla1 baits (distance to bait WT¦WT¦SH3-2, listed as WT¦WT¦WT*): 6.816 | Protein-protein interaction distance between Sla1 baits (distance to bait WT¦WT¦WT): 0 | Protein-protein interaction distance between Sla1 baits (distance to bait WT¦WT¦WT*): 6.956 | Protein-protein interaction distance between Sla1 baits (distance to bait WT¦WT¦WT*, listed as WT¦WT¦WT*): 0 | Protein-protein interaction distance between Sla1 baits (distance to bait WT¦WT¦WT, listed as WT¦WT¦WT*): 6.956
